Reference: patent publication US9243044B2, “Anticoagulant polypeptide and applications thereof” (GUANGDONG MEDICAL COLLEGE, priority 2011, dated 2016)

B1: NAPTin-7 (protein)
chain: NPSCGENERHDECSRKECDPKCKYDGTEEKDDEKPVVCLTRVCYGDCICRDGFLRNKNGACVKAEDC
modifications: Sequence derived from Ancylostoma caninum or Synthetic
B2: NAPTin-5 (protein)
chain: NPSCGENERHDECSRKECDPKCKYDGTEEKDDEKPVVCLTRVCYGDCICRDGFLRNKNGACVKAEDCEL
modifications: Sequence derived from Ancylostoma caninum or Synthetic
B3: NAPTin-3 (protein)
chain: NPSCGENERHDECSRKECDPKCKYDGTEEKDDEKPVVCLTRVCYGDCICRDGFLRNKNGACVKAEDCELDNM
modifications: Sequence derived from Ancylostoma caninum or Synthetic

Legend:
SD rats = assay: Rat arterio-venous shunt thrombus formation model; type: in vivo; conditions: 100 U·kg^−1 i.v.
Method: 50 SPF grade male SD rats (provided by the laboratory animal center of Guangdong Medical College, 300-350 g body weight) were randomly divided into saline control group, positive control group (100 U·kg^−1 heparin sodium, Shanghai No. 1 Biochemical & Pharmaceutical Co. Ltd), and rNAPT-1 low dose (100 μg·kg^−1), middle dose (1 mg·kg^−1), high dose group (5 mg·kg^−1), 10 rats each group, respectively. These rats were anaesthetized with 10% chloral hydrate (250 mg/kg) by intraperitoneal injection. The right common carotid artery and left external jugular vein was exposed and dissected bluntly from the surrounding tissue after a surgical incision. One end of a polyethylene pipe (1.5 mm of diameter, 22 cm of length) with a 5 cm length of No. 4 operation suture in it and filled with 50 U/mL heparin solution was inserted into the right common carotid artery, and the other end was inserted into the left external […] vein. 5 min after tail intravenous injection of drugs, the artery clamp was opened, and blood flow from the right common carotid artery to the left external jugular vein through the polyethylene pipe. After 15 min of blood flow, the suture line was quickly removed and weighed. The net weight of thrombus is total weight minus suture weight; inhibition rate=(wet weight of thrombus of saline control group−wet weight of thrombus of administration group)/wet weight of thrombus of saline control group×100%.

normal human plasma [1] = assay: aPTT assay in normal human plasma; type: biochemical; conditions: for prolongation of aPTT (in words): 100 nM and 500 nM; for aPTT: normal human plasma; for multiples of prolonging aPTT: ratio of mean aPTT to blank control
Method: (§1) The recombinant anticoagulant polypeptides were expressed in Escherichia coli and purified in our laboratory. Anticoagulant activity was determined by measuring the aPTT and PT.
For the aPTT assay, 10 μl recombinant protein at various concentrations was mixed with 50 μl fresh normal human plasma, 20 μl aPTT reagent (MDC Hemostasis, Germany) and incubated for 15 mins at 37° C. 20 μl 0.05 mol/L prewarmed CaCl2 was then added to initiate the clotting reaction. The clotting time was measured with the absorbance at 630 nm by using an E1x808 kinetic microtiter reader (BioTek, United States). Each concentration was repeated 3 times. The ratio of the mean aPTT value of each concentration to blank control group is multiples of prolonging the aPTT.

BALb/c mice = assay: Mouse tail bleeding time; type: in vivo; conditions: tail transected after 10 min
Method: After 10 min, the distal tip 1.5 mm of the mouse tail was transected and the blood oozed was soaked with filter paper very 30 seconds until the bleeding stops. The bleeding time was defined as the time elapsed from the tail transection to the stoppage of bleeding.

human fXIa = target: T1, human fXIa (Homo sapiens, UniProt P03951); assay: Chromogenic assay, fXIa; type: biochemical; conditions: for inhibition of the activity of fXIa: 100 nM; for inhibition of the activity of fXIa (in words): 200 nM
T1 construct: Human coagulation factors IIa (thrombin), Xa, XIa, XIIa, EGR-fXa; purchased Haematologic Technologies Inc (United States)
T1 sequence (P03951 19-387 limits assumed): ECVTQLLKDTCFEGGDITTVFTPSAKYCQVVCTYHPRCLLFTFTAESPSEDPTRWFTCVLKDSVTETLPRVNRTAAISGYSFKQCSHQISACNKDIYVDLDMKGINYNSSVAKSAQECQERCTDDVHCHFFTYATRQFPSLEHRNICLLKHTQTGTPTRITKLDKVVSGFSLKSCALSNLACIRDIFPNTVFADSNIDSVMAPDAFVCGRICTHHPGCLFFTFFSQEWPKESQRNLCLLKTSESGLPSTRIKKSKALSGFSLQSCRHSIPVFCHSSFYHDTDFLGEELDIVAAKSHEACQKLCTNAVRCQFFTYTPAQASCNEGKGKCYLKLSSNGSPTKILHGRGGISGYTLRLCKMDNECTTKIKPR
T1 sequence (P03951 388-625 limits assumed): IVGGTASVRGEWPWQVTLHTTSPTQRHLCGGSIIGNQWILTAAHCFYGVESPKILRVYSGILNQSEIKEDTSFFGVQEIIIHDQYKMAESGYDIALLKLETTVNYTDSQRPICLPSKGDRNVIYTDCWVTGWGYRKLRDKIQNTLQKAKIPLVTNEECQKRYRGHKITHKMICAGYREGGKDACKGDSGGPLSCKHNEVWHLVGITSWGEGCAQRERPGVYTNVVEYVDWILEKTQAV
Description: (§2) The recombinant anticoagulant polypeptides in the present invention were expressed in E. coli and purified in our laboratory, of which the activities against coagulation factors were investigated by chromogenic assays. Human coagulation factors IIa (thrombin), Xa, XIa, XIIa, EGR-fXa were products of Haematologic Technologies Inc (United States). Recombinant fVIIa was products of Novo-Nordisk (Denmark). Recombinant soluble tissue factor (sTF) was purchased from Protgen (Beijing, China). The following chromogenic substrates were used for these coagulation factor assays: S2765 for human fXa, S2288 for human fVIIa and fIIa, 52366 for human fXIa and fXIIa, respectively.
(§3) The chromogenic assays were carried out in a total reaction volume of 100 μl in individual wells of a 96-well microtiter plate. 50 μl fIIa, fXa, fXIa, or fXIIa (final concentration: 1 nM) was incubated with 10 μl recombinant anticoagulant polypeptide at various concentrations (or PBS control group) Assays for the detection activity of fVIIa: 50 μl fVIIa+TF (1 μM) and EGR-fXa (final concentration 500 nM) was incubated for 15 mins at 25° C., respectively. After the addition of 40 μl of prewarmed chromogenic substrate to a final concentration of 400 μM, the changes of absorbance at 405 nm were monitored by using an E1x808 kinetic microtiter reader. The data were used to calculate the velocities of response.

normal human plasma [2] = assay: PT assay in normal human plasma; type: biochemical; conditions: for prolongation of PT (in words): 100 nM and 500 nM; for PT: normal human plasma
Method: as §1
For the PT assay, 10 μl recombinant protein at various concentration was mixed with 45 μl normal human plasma and incubated for 15 mins at 37° C. 45 μl prewarmed PT reagent (MDC Hemostasis, Germany) was then added and the clotting time was measured with the absorbance at 630 nm by using an E1x808 kinetic microtiter reader (BioTek, United States). Each concentration was repeated 3 times.

human fXa = target: T2, human fXa (Homo sapiens, UniProt P00742); assay: Chromogenic assay, fXa; type: biochemical
T2 construct: Human coagulation factors IIa (thrombin), Xa, XIa, XIIa, EGR-fXa; purchased Haematologic Technologies Inc (United States)
T2 sequence (P00742 41-179 limits assumed): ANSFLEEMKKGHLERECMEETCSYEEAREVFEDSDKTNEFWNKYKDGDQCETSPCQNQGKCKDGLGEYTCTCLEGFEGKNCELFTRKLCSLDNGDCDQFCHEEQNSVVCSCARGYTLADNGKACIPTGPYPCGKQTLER
T2 sequence (P00742 235-488 limits assumed): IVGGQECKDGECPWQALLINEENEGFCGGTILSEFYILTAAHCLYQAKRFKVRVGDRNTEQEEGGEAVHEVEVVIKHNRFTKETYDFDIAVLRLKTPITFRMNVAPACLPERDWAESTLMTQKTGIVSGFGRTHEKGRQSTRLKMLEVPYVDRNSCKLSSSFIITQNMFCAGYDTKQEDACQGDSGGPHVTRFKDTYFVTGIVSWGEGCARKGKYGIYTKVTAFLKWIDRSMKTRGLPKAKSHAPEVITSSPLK
Description: as §2, §3

human fXIIa = target: T3, human fXIIa (Homo sapiens, UniProt P00748); assay: Chromogenic assay, fXIIa; type: biochemical
T3 construct: Human coagulation factors IIa (thrombin), Xa, XIa, XIIa, EGR-fXa; purchased Haematologic Technologies Inc (United States)
T3 sequence (P00748 373-615 limits assumed): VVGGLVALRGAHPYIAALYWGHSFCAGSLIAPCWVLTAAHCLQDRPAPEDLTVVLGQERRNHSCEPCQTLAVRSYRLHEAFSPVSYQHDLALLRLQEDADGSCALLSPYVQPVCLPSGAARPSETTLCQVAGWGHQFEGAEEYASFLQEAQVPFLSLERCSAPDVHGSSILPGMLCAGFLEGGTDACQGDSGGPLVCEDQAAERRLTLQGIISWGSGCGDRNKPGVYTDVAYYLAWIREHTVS
T3 sequence (P00748 20-372 limits assumed): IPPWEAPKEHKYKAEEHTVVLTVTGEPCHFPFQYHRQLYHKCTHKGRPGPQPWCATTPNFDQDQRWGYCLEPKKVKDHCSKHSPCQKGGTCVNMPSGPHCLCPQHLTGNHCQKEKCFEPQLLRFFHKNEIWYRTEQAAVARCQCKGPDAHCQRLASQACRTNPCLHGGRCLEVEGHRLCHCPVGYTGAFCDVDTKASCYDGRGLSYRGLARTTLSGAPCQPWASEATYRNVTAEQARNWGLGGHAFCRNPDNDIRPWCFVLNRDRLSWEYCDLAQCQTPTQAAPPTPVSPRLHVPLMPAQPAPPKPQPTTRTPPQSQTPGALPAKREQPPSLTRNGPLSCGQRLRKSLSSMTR
Description: as §2, §3

human fIIa (thrombin) = target: T4, human fIIa (thrombin) (Homo sapiens, UniProt P00734); assay: Chromogenic assay, fIIa (thrombin); type: biochemical
T4 construct: Human coagulation factors IIa (thrombin), Xa, XIa, XIIa, EGR-fXa; purchased Haematologic Technologies Inc (United States)
Description: as §2, §3

fVIIa/TF = target: T5, fVIIa/TF (Homo sapiens, UniProt P08709); assay: Chromogenic assay, fVIIa/TF; type: biochemical
T5 construct: Recombinant fVIIa was products of Novo-Nordisk (Denmark); purchased Novo-Nordisk (Denmark) for fVIIa; Protgen (Beijing, China) for sTF; Haematologic Technologies Inc for EGR-fXa
T5 sequence (P08709 61-212 limits assumed): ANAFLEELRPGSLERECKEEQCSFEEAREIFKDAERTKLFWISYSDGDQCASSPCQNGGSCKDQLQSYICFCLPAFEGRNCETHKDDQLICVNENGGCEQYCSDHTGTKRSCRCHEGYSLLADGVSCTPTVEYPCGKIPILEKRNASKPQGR
T5 sequence (P08709 213-466 limits assumed): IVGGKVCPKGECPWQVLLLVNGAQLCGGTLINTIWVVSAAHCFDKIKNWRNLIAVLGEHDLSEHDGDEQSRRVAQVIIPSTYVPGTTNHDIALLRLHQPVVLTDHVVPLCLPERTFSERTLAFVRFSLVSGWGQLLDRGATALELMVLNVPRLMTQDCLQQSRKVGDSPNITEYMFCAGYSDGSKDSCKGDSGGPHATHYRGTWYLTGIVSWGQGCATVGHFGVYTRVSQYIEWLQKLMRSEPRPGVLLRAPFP
T5 sequence (P13726 33-251 partner limits assumed): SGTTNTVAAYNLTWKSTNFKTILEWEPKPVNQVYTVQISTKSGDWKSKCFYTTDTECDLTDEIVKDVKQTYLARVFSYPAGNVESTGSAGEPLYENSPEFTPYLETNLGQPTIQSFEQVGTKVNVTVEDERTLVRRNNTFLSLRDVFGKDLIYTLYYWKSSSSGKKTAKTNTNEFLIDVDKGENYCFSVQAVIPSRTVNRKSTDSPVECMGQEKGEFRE
Description: as §2, §3

Molecule | prolongation of aPTT (in words) (normal human plasma [1]) | aPTT (normal human plasma [1]; 100 nM) | multiples of prolonging aPTT (normal human plasma [1]; 100 nM) | aPTT (normal human plasma [1]; 500 nM) | multiples of prolonging aPTT (normal human plasma [1]; 500 nM) | Bleeding time (BALb/c mice; 100 μg·kg^−1 tail vein) | Bleeding time (BALb/c mice; 1 mg·kg^−1 tail vein) | Bleeding time (BALb/c mice; 5 mg·kg^−1 tail vein) | inhibition of the activity of fXIa (human fXIa) | inhibition of the activity of fXIa (in words) (human fXIa) | prolongation of PT (in words) (normal human plasma [2]) | PT (normal human plasma [2]; 100 nM) | PT (normal human plasma [2]; 500 nM) | effect on fXa activity (in words) (human fXa; 100 nM) | effect on fXa activity (in words) (human fXa; 200 nM) | effect on fXIIa activity (in words) (human fXIIa; 100 nM) | effect on fXIIa activity (in words) (human fXIIa; 200 nM) | effect on fIIa activity (in words) (human fIIa (thrombin); 100 nM) | effect on fIIa activity (in words) (human fIIa (thrombin); 200 nM) | effect on fVIIa/TF activity (in words) (fVIIa/TF; 100 nM) | further results
heparin sodium [reference compound] | – | – | – | – | – | – | – | – | – | – | – | – | – | – | – | – | – | – | – | – | wet weight of thrombus (SD rats): 14.2 ± 3.6 mg; Inhibition rate % (SD rats; vs saline control): 74.3%
B1 | significantly prolong aPTT | 78.7 ± 8.1 s | 1.96 | 218.3 ± 5.9 s | 5.44 | 8.30 ± 2.0 min | 8.26 ± 1.9 min | 8.31 ± 2.2 min | more than 90% | almost completely inhibited | couldn't prolong PT | 11.7 ± 0.5 s | 12.7 ± 0.4 s | without affecting | without affecting | without affecting | without affecting | without affecting | without affecting | without affecting | effect on fVIIa/TF activity (in words) (fVIIa/TF; 200 nM): without affecting
B2 | significantly prolong aPTT | 77.9 ± 2.9 s | 1.94 | 226.8 ± 6.6 s | 5.66 | 8.30 ± 2.3 min | 8.31 ± 1.0 min | 8.33 ± 2.4 min | more than 90% | almost completely inhibited | couldn't prolong PT | 12.2 ± 0.6 s | 12.6 ± 0.4 s | without affecting | without affecting | without affecting | without affecting | without affecting | without affecting | without affecting | effect on fVIIa/TF activity (in words) (fVIIa/TF; 200 nM): without affecting
B3 | significantly prolong aPTT | 83.0 ± 1.2 s | 2.07 | 219.3 ± 6.2 s | 5.47 | 8.38 ± 1.3 min | 8.29 ± 2.5 min | 8.32 ± 1.8 min | more than 90% | almost completely inhibited | couldn't prolong PT | 13.5 ± 0.4 s | 12.3 ± 0.8 s | without affecting | without affecting | without affecting | without affecting | without affecting | without affecting | without affecting | effect on fVIIa/TF activity (in words) (fVIIa/TF; 200 nM): without affecting
